According to publication PMC2289905:
Each block holds one substance with its values, some of them ahead of it.

Key:
[1] = molecular target: mature TGFbeta1 secreted by COS-1 cells transfected with wild-type pre-pro-TGFbeta1 (simian); experiment: nonreducing SDS-PAGE with immunoblot
[2] = molecular target: radioiodinated mature transforming growth factor beta 1 (UniProt P01137); experiment: cross-linking
[3] = molecular target: beta 1-LAP deletion mutant L85-110 (simian); experiment: nonreducing SDS-PAGE with immunoblot
[4] = molecular target: beta 1-LAP deletion mutant L40-50 (simian); experiment: nonreducing SDS-PAGE with immunoblot
[5] = molecular target: beta 1-LAP deletion mutant L50-81 (simian); experiment: nonreducing SDS-PAGE with immunoblot
[6] = molecular target: beta 1-LAP deletion mutant L50-85 (simian); experiment: nonreducing SDS-PAGE with immunoblot

Chain of radioiodinated mature transforming growth factor beta 1 (P01137 279-390): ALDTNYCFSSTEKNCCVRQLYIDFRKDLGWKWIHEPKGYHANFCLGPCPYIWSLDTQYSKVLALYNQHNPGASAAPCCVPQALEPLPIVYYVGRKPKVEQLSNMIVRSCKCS
Chain of beta 1-latency-associated peptide (pro domain of TGFbeta1 expressed independently), wild type (domain or fragment) (P09533 30-390): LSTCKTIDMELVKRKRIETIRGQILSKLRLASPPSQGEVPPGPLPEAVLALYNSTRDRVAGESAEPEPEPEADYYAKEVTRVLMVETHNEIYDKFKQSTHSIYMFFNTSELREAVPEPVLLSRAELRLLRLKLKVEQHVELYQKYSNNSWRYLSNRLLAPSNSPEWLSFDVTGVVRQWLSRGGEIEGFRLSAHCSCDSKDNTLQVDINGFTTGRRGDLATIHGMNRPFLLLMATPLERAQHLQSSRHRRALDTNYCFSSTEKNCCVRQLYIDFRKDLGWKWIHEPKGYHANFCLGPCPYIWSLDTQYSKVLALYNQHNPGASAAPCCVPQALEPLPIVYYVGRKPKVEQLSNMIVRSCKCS

Substance: beta 1-LAP deletion mutant L85-110 (domain or fragment)
cross-linking (% of wild-type) (% of wild-type) [2]: 12 | stoichiometry N [3]: 2

Substance: beta 1-latency-associated peptide (pro domain of TGFbeta1 expressed independently), wild type (domain or fragment)
cross-linking (% of wild-type) (% of wild-type) [2]: 100

Other lines, results leading:

stoichiometry N [1]: 2
Substance: mature TGFbeta1 secreted by COS-1 cells transfected with wild-type pre-pro-TGFbeta1 (ligand)

cross-linking (% of wild-type) (% of wild-type) [2]: 10 | stoichiometry N [4]: 2
Substance: beta 1-LAP deletion mutant L40-50 (domain or fragment)

stoichiometry N [5]: 2
Substance: beta 1-LAP deletion mutant L50-81 (domain or fragment)

stoichiometry N [6]: 2
Substance: beta 1-LAP deletion mutant L50-85 (domain or fragment)
